Consider two molecules from US20130171163A1 (published 2013).

The chains are these.
B1: GST-cLAR fusion protein (other, UniProt P10586 1285-1907, looked up)
chain: KRKRTHSPSSKDEQSIGLKDSLLAHSSDPVEMRRLNYQTPGMRDHPPIPITDLADNIERLKANDGLKFSQEYESIDPGQQFTWENSNLEVNKPKNRYANVIAYDHSRVILTSIDGVPGSDYINANYIDGYRKQNAYIATQGPLPETMGDFWRMVWEQRTATVVMMTRLEEKSRVKCDQYWPARGTETCGLIQVTLLDTVELATYTVRTFALHKSGSSEKRELRQFQFMAWPDHGVPEYPTPILAFLRRVKACNPLDAGPMVVHCSAGVGRTGCFIVIDAMLERMKHEKTVDIYGHVTCMRSQRNYMVQTEDQYVFIHEALLEAATCGHTEVPARNLYAHIQKLGQVPPGESVTAMELEFKLLASSKAHTSRFISANLPCNKFKNRLVNIMPYELTRVCLQPIRGVEGSDYINASFLDGYRQQKAYIATQGPLAESTEDFWRMLWEHNSTIIVMLTKLREMGREKCHQYWPAERSARYQYFVVDPMAEYNMPQYILREFKVTDARDGQSRTIRQFQFTDWPEQGVPKTGEGFIDFIGQVHKTKEQFGQDGPITVHCSAGVGRTGVFITLSIVLERMRYEGVVDMFQTVKTLRTQRPAMVQTEDQYQLCYRAALEYLGSFDHYAT
notes: domain: cytoplasmic LAR (cLAR); The fusion was immobilized on glutathione-Sepharose beads and incubated with HUVEC lysates; not shown: Glutathione-S-transferase (GST) tag
B2: VEGFR3 (receptor, human, UniProt P35916 25-1363, looked up)
chain: YSMTPPTLNITEESHVIDTGDSLSISCRGQHPLEWAWPGAQEAPATGDKDSEDTGVVRDCEGTDARPYCKVLLLHEVHANDTGSYVCYYKYIKARIEGTTAASSYVFVRDFEQPFINKPDTLLVNRKDAMWVPCLVSIPGLNVTLRSQSSVLWPDGQEVVWDDRRGMLVSTPLLHDALYLQCETTWGDQDFLSNPFLVHITGNELYDIQLLPRKSLELLVGEKLVLNCTVWAEFNSGVTFDWDYPGKQAERGKWVPERRSQQTHTELSSILTIHNVSQHDLGSYVCKANNGIQRFRESTEVIVHENPFISVEWLKGPILEATAGDELVKLPVKLAAYPPPEFQWYKDGKALSGRHSPHALVLKEVTEASTGTYTLALWNSAAGLRRNISLELVVNVPPQIHEKEASSPSIYSRHSRQALTCTAYGVPLPLSIQWHWRPWTPCKMFAQRSLRRRQQQDLMPQCRDWRAVTTQDAVNPIESLDTWTEFVEGKNKTVSKLVIQNANVSAMYKCVVSNKVGQDERLIYFYVTTIPDGFTIESKPSEELLEGQPVLLSCQADSYKYEHLRWYRLNLSTLHDAHGNPLLLDCKNVHLFATPLAASLEEVAPGARHATLSLSIPRVAPEHEGHYVCEVQDRRSHDKHCHKKYLSVQALEAPRLTQNLTDLLVNVSDSLEMQCLVAGAHAPSIVWYKDERLLEEKSGVDLADSNQKLSIQRVREEDAGRYLCSVCNAKGCVNSSASVAVEGSEDKGSMEIVILVGTGVIAVFFWVLLLLIFCNMRRPAHADIKTGYLSIIMDPGEVPLEEQCEYLSYDASQWEFPRERLHLGRVLGYGAFGKVVEASAFGIHKGSSCDTVAVKMLKEGATASEHRALMSELKILIHIGNHLNVVNLLGACTKPQGPLMVIVEFCKYGNLSNFLRAKRDAFSPCAEKSPEQRGRFRAMVELARLDRRRPGSSDRVLFARFSKTEGGARRASPDQEAEDLWLSPLTMEDLVCYSFQVARGMEFLASRKCIHRDLAARNILLSESDVVKICDFGLARDIYKDPDYVRKGSARLPLKWMAPESIFDKVYTTQSDVWSFGVLLWEIFSLGASPYPGVQINEEFCQRLRDGTRMRAPELATPAIRRIMLNCWSGDPKARPAFSELVEILGDLLQGRGLQEEEEVCMAPRSSQSSEEGSFSQVSTMALHIAQADAEDSPPSLQRHSLAARYYNWVSFPGCLARGAETRGSSRMKTFEEFPMTPTTYKGSVDNQTDSGMVLASEEFEQIESRHRQESGFSCKGPGQNVAVTRAHPDSQGRRRRPERGARGGQVFYNSEYGELSEPSEEDHCSPSARVTFFTDNSY
notes: Endogenous protein in HUVEC lysates, with or without VEGF treatment (20 ng/ml, 10 min)

For one assay, the target named is T1, VEGFR2 (human, UniProt P35968 20-1356).
T1 construct: Endogenous protein in HUVEC lysates, with or without VEGF treatment (20 ng/ml, 10 min)
T1 sequence (P35968 20-1356 limits assumed): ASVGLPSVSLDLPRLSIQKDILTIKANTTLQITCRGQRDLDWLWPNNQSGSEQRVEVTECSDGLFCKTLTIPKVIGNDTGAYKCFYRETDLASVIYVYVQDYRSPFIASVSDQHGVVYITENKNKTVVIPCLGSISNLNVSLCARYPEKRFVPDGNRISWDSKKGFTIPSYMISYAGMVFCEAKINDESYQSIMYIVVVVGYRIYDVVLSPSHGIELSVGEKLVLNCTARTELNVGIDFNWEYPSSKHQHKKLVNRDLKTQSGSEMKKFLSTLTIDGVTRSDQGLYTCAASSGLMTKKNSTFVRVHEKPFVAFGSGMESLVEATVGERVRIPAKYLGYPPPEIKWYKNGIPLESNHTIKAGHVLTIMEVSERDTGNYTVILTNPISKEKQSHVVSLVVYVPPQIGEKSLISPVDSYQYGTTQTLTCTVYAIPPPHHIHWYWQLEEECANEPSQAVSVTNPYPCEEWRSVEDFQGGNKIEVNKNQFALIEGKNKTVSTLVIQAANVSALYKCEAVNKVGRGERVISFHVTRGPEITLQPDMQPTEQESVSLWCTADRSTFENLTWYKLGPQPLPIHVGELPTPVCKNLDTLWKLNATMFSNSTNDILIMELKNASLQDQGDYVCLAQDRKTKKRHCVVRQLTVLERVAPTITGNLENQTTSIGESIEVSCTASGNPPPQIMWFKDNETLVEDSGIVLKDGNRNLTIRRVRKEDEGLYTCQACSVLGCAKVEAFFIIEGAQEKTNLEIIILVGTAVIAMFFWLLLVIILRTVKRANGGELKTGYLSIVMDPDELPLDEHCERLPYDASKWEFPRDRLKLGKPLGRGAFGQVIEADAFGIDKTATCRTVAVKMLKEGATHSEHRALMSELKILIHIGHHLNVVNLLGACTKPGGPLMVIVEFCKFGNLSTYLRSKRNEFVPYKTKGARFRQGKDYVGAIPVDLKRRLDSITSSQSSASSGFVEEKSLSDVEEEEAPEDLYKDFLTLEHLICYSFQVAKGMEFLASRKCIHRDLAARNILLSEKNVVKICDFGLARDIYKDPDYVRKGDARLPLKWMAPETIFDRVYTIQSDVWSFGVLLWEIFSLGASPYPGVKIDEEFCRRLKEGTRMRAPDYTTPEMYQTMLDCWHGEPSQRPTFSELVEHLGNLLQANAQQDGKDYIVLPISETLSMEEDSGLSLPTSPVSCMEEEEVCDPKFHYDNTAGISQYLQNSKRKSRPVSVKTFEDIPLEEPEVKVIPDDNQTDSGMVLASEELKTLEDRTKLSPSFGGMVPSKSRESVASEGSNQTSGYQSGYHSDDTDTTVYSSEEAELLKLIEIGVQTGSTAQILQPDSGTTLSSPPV
The assay is described as follows: GST pulldown from HUVEC lysates, Western blot with anti-VEGFR2. As for the experimental part: (§1) C, Lysates from HUVECs stimulated with or without VEGF (20 ng/ml) for 10 min were immunoprecipitated with polyclonal antibodies against anti-cLAR or control goat IgG, followed by immunoblotting with anti-VEGFR2 (top), VEGFR3 (middle) or anti-cLAR antibody (bottom). D, Equal amounts of GST or GST-cLAR fusion protein were immobilized on glutathione-Sepharose beads and then incubated with HUVEC lysates containing equal amount of protein. GST or GST-cLAR-associated proteins were analyzed by Western blotting using anti-IGF-1Rβ antibody. The same membrane was reprobed with anti-GST antibody (E), anti-VEGFR2 (F, top) or anti-VEGFR3 (F, bottom) antibodies.

The assay “VEGFR3” addresses B2. Nature of the assay: GST pulldown from HUVEC lysates, Western blot with anti-VEGFR3. As for the experimental part: as §1
(In western blotting, separated proteins are transferred to a membrane and probed.)

In assay [1] the target is T2, leukocyte antigen-related protein tyrosine phosphatase (LAR) (human, UniProt P10586 30-1907, limits assumed).
T2 construct: Endogenous protein in HUVEC lysates; The background section describes LAR as a non-covalent complex of a 150-kDa E subunit and an 85-kDa P subunit, cleaved from a 200-kDa proprotein; In the functional assays, full-length human LAR was overexpressed from adenovirus (AdLAR) or knocked down with siRNA; also called LAR PTP; leukocyte antigen-related (LAR) PTP
The assay is described as follows: co-immunoprecipitation from HUVEC lysates with anti-cLAR antibody, Western blot with anti-VEGFR3. As for the experimental part: as §1

As to B1, the binding result with VEGFR2 and with VEGFR3 was “no binding” in each case.

On to B2, for which the binding result in assay [1] is “no binding”.
